Measurements: paper PMC6288613, “Mouse REC114 is essential for meiotic DNA double-strand break formation and forms a complex with MEI4” (Life Science Alliance, 2018)

Target: the molecule itself
Assay: SEC-MALS; SEC-MALLS, Superdex 75; 50 ul of purified protein injected at 10, 5 and 2 mg/ml; dimer to monomers, fast exchange

B1: Mouse REC114 (15-159) (domain or fragment, UniProt Q9CWH4 15-159, looked up)
chain: GEVSQWSLKRYGRFMLLDNVGSPGPSSEAAAAGSPTWKVFESSEESGSLVLTIVVSGHFFISQGQTLLEGFSLIGSKNWLKIVRRMDCLLFGTTIKNKSRMFRVQFSGESKEEALERCCGCVQTLAQYVTVQEPDSTTQELQQSQ
notes: REC114, mouse, residues 15-159 (PH domain), expressed from pProEXHTb; final crystallographic model includes residues 15-150; A selenomethionine-substituted form was also crystallised for phasing; also called REC114 PH domain; REC114 N-terminal region; source: E. coli BL21-Gold (DE3), purified (Ni2+ resin, TEV cleavage, second Ni2+ column, size-exclusion chromatography)
- stoichiometry N: 2
